Where a chain is given by its changes, count along the chain named.
Assays:
RB69 PolY567A/D714A Exo- = biological target: T1, RB69 PolY567A/D714A Exo- (bacteriophage RB69, UniProt Q38087 1-903, D222A;D327A;Y567A;D714A); experiment: X-ray crystallography; dGpnpp, Ca2+, Na+; ternary complex I, 2.30 A; conditions: protein: recombinant; template 5' overhang 4 nt and 3' overhang 1 nt
T1 sequence: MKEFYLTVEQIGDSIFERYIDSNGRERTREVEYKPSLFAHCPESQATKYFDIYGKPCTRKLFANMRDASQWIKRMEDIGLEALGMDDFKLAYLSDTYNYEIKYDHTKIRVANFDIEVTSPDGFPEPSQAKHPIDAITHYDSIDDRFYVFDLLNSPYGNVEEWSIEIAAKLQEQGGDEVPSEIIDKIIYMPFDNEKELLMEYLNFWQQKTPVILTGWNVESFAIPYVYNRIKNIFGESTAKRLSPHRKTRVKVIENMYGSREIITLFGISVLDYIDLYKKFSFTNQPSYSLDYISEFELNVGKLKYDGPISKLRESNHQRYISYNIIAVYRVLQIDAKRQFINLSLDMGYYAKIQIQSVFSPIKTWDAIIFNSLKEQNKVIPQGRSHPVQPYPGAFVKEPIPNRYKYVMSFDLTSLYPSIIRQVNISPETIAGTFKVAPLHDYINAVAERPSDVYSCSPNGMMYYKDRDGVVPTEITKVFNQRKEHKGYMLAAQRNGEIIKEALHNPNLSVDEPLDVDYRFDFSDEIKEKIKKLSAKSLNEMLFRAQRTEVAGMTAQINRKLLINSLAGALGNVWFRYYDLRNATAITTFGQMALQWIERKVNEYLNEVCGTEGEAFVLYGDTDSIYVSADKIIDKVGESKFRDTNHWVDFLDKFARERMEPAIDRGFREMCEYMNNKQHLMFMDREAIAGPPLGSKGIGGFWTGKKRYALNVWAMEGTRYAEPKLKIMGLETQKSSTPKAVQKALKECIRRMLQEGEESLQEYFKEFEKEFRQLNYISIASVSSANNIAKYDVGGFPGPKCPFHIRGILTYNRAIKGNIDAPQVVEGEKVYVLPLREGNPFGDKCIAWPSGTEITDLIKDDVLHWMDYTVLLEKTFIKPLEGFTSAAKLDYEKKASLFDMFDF

RB69 Pol+Exo- = biological target: T2, RB69 Pol+Exo- (bacteriophage RB69, UniProt Q38087 1-903, D222A;D327A); experiment: EMSA; binds tighter than Pol+Exo+; value in Table 2/Figure 2E not in material; EMSA: 50 nM DNA, 7.5-500 nM Exo+ or 2.5-400 nM Exo- polymerase, native 6% PAGE; buffer, pH and temperature as in ref. 16; conditions: protein: recombinant; label: 5'-32P on primer (20-mer); 5' overhang 6 nt on template; other end blunt
T2 sequence: T1 sequence with A567Y, A714D

[1] = biological target: T3, RB69 DNA polymerase Pol+Exo+ (wild type gp43) (bacteriophage RB69, UniProt Q38087 1-903); experiment: EMSA; apparent Kd; EMSA: 50 nM DNA, 7.5-500 nM Exo+ or 2.5-400 nM Exo- polymerase, native 6% PAGE; buffer, pH and temperature as in ref. 16; conditions: protein: recombinant; label: 5'-32P on primer (20-mer); 5' overhang 6 nt on template; other end blunt
T3 sequence: T1 sequence with A222D, A327D, A567Y, A714D

RB69 PolD714A Exo+ = biological target: T4, RB69 PolD714A Exo+ (bacteriophage RB69, UniProt Q38087 1-903, D714A); experiment: as above; conditions: protein: recombinant; label: 5'-32P on primer (20-mer); 5' overhang 6 nt on template; other end blunt
T4 sequence: T1 sequence with A222D, A327D, A567Y

RB69 PolD714A Exo- = biological target: T5, RB69 PolD714A Exo- (bacteriophage RB69, UniProt Q38087 1-903, D222A;D327A;D714A); experiment: EMSA; almost same affinity as Pol+Exo-; value in Table 2/Figure 2E not in material; EMSA: 50 nM DNA, 7.5-500 nM Exo+ or 2.5-400 nM Exo- polymerase, native 6% PAGE; buffer, pH and temperature as in ref. 16; conditions: protein: recombinant; label: 5'-32P on primer (20-mer); 5' overhang 6 nt on template; other end blunt
T5 sequence: T1 sequence with A567Y

B1: 13/18-mer primer-template (crystal) (dsDNA)
DNA 1: GCGGACTGCTTAC
DNA 2: TCACGTAAGCAGTCCGCG
B1: binds (RB69 PolY567A/D714A Exo-).

B2: 20*/26-mer primer-template (dsDNA)
DNA 1: AGCTACGCGGCTGTCATAAG
DNA 2: TTGCGTCTTATGACAGCCGCGTAGCT
With B2 the binding result (RB69 Pol+Exo-) was “binds”, the Kd [1] was 176 nM and the Kd (RB69 PolD714A Exo+) was 141 nM. B2: binds (RB69 PolD714A Exo-).

Source: article PMC3792054, “A Remote Palm Domain Residue of RB69 DNA Polymerase Is Critical for Enzyme Activity and Influences the Conformation of the Active Site”
